Reference: the supplement of paper PMC9112550, “Optimization of the antimicrobial peptide Bac7 by deep mutational scanning” (BMC Biology, 2022)

System: Escherichia coli TOP10
Test: shrunken log2 fold change of peptide-encoding DNA abundance (4.5 h post-induction vs induction); higher = less antimicrobial activity (less host growth inhibition)
Conditions: time post-induction: 4.5 h; library: site-saturation at positions 5, 18, 19, 20
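Further: peptides expressed intracellularly from a pBAD plasmid library in pooled LB shake-flask culture, induced with 0.3% L-arabinose, DNA abundance read by NGS, three biological replicates, DESeq2 with apeglm shrinkage.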

Sequence | shrunken log2 fold change
RRIRMRPPRLPRPRPRPCPVPRP | 0.0171
RRIRMRPPRLPRPRPRPCSMPRP | -0.0341
RRIRMRPPRLPRPRPRPCSRPRP | 0.296
RRIRMRPPRLPRPRPRPCTIPRP | -0.263
RRIRMRPPRLPRPRPRPCTNPRP | 0.0685
RRIRMRPPRLPRPRPRPCWQPRP | 0.0757
RRIRMRPPRLPRPRPRPCYMPRP | -0.605
RRIRMRPPRLPRPRPRPDAVPRP | 3.73
RRIRMRPPRLPRPRPRPDCIPRP | 1.76
RRIRMRPPRLPRPRPRPDCPPRP | 0.0739
RRIRMRPPRLPRPRPRPDDDPRP | -0.00152
RRIRMRPPRLPRPRPRPDDVPRP | -0.00192
RRIRMRPPRLPRPRPRPDDYPRP | 0.766
RRIRMRPPRLPRPRPRPDFFPRP | 0.29
RRIRMRPPRLPRPRPRPDFMPRP | -0.0119
RRIRMRPPRLPRPRPRPDFQPRP | -0.0477
RRIRMRPPRLPRPRPRPDGWPRP | 1.48
RRIRMRPPRLPRPRPRPDHQPRP | 0.143
RRIRMRPPRLPRPRPRPDIFPRP | 0.118
RRIRMRPPRLPRPRPRPDKMPRP | 0.323
RRIRMRPPRLPRPRPRPDKPPRP | -0.00474
RRIRMRPPRLPRPRPRPDKYPRP | -0.212
RRIRMRPPRLPRPRPRPDLFPRP | 0.803
RRIRMRPPRLPRPRPRPDLGPRP | 0.11
RRIRMRPPRLPRPRPRPDLQPRP | 0.461

Sequence | shrunken log2 fold change
RRIRMRPPRLPRPRPRPDMAPRP | 1.86
RRIRMRPPRLPRPRPRPDPAPRP | 1.13
RRIRMRPPRLPRPRPRPDQPPRP | -0.0102
RRIRMRPPRLPRPRPRPDQYPRP | -0.418
RRIRMRPPRLPRPRPRPDSFPRP | -0.0586
RRIRMRPPRLPRPRPRPDSWPRP | 1.59
RRIRMRPPRLPRPRPRPDTAPRP | 1.24
RRIRMRPPRLPRPRPRPDTFPRP | 0.403
RRIRMRPPRLPRPRPRPDTLPRP | -0.122
RRIRMRPPRLPRPRPRPDVIPRP | -0.0756
RRIRMRPPRLPRPRPRPDVMPRP | 0.147
RRIRMRPPRLPRPRPRPDYDPRP | 0.635
RRIRMRPPRLPRPRPRPDYNPRP | -0.21
RRIRMRPPRLPRPRPRPEALPRP | 3.81
RRIRMRPPRLPRPRPRPEDVPRP | -0.0102
RRIRMRPPRLPRPRPRPEEKPRP | 2.64
RRIRMRPPRLPRPRPRPEEPPRP | 0.0975
RRIRMRPPRLPRPRPRPEFLPRP | 0.113
RRIRMRPPRLPRPRPRPEGHPRP | 2.72
RRIRMRPPRLPRPRPRPEGKPRP | 3.36
RRIRMRPPRLPRPRPRPEIGPRP | 2.62
RRIRMRPPRLPRPRPRPELFPRP | 3.28
RRIRMRPPRLPRPRPRPEMDPRP | 3.88
RRIRMRPPRLPRPRPRPEMNPRP | 3.59
RRIRMRPPRLPRPRPRPEMPPRP | 0.791

Sequence | shrunken log2 fold change
RRIRMRPPRLPRPRPRPENFPRP | 0.0515
RRIRMRPPRLPRPRPRPENIPRP | 0.0472
RRIRMRPPRLPRPRPRPEPSPRP | 2.72
RRIRMRPPRLPRPRPRPERKPRP | 2.06
RRIRMRPPRLPRPRPRPERLPRP | 0.442
RRIRMRPPRLPRPRPRPESHPRP | 0.076
RRIRMRPPRLPRPRPRPESLPRP | 1.69
RRIRMRPPRLPRPRPRPESMPRP | 2.6
RRIRMRPPRLPRPRPRPETQPRP | 0.359
RRIRMRPPRLPRPRPRPFACPRP | -0.1
RRIRMRPPRLPRPRPRPFAHPRP | -0.00592
RRIRMRPPRLPRPRPRPFCCPRP | 0.534
RRIRMRPPRLPRPRPRPFCFPRP | 0.222
RRIRMRPPRLPRPRPRPFFYPRP | -0.123
RRIRMRPPRLPRPRPRPFHPPRP | -0.0444
RRIRMRPPRLPRPRPRPFIFPRP | -0.233
RRIRMRPPRLPRPRPRPFKMPRP | 0.0516
RRIRMRPPRLPRPRPRPFLAPRP | 0.0298
RRIRMRPPRLPRPRPRPFLGPRP | 0.254
RRIRMRPPRLPRPRPRPFNIPRP | -0.3
RRIRMRPPRLPRPRPRPFNVPRP | -0.0076
RRIRMRPPRLPRPRPRPFQIPRP | -0.0803
RRIRMRPPRLPRPRPRPFQTPRP | 0.00707
RRIRMRPPRLPRPRPRPFRPPRP | -0.16
RRIRMRPPRLPRPRPRPFSSPRP | 0.0321

Sequence | shrunken log2 fold change
RRIRMRPPRLPRPRPRPGCRPRP | 1.22
RRIRMRPPRLPRPRPRPGCSPRP | 0.815
RRIRMRPPRLPRPRPRPGCTPRP | 0.245
RRIRMRPPRLPRPRPRPGDIPRP | 0.025
RRIRMRPPRLPRPRPRPGECPRP | -0.0159
RRIRMRPPRLPRPRPRPGEDPRP | 0.118
RRIRMRPPRLPRPRPRPGFDPRP | 0.908
RRIRMRPPRLPRPRPRPGFMPRP | 0.0795
RRIRMRPPRLPRPRPRPGFNPRP | -0.106
RRIRMRPPRLPRPRPRPGHQPRP | 0.568
RRIRMRPPRLPRPRPRPGKFPRP | 0.0419
RRIRMRPPRLPRPRPRPGKWPRP | 0.204
RRIRMRPPRLPRPRPRPGLCPRP | 1.79
RRIRMRPPRLPRPRPRPGMAPRP | 1.19
RRIRMRPPRLPRPRPRPGMGPRP | 0.902
RRIRMRPPRLPRPRPRPGNVPRP | -0.0105
RRIRMRPPRLPRPRPRPGPCPRP | 0.915
RRIRMRPPRLPRPRPRPGQKPRP | 0.142
RRIRMRPPRLPRPRPRPGRKPRP | 1.32
RRIRMRPPRLPRPRPRPGRQPRP | -0.00182
RRIRMRPPRLPRPRPRPGSKPRP | 0.479
RRIRMRPPRLPRPRPRPGSTPRP | 0.292
RRIRMRPPRLPRPRPRPGTRPRP | 0.675
RRIRMRPPRLPRPRPRPGTYPRP | -0.163
RRIRMRPPRLPRPRPRPGVDPRP | 1.68

Sequence | shrunken log2 fold change
RRIRMRPPRLPRPRPRPGWEPRP | 0.888
RRIRMRPPRLPRPRPRPGYHPRP | 0.0695
RRIRMRPPRLPRPRPRPGYLPRP | 0.0963
RRIRMRPPRLPRPRPRPGYWPRP | 0.0653
RRIRMRPPRLPRPRPRPHCMPRP | -0.122
RRIRMRPPRLPRPRPRPHEMPRP | 0.0891
RRIRMRPPRLPRPRPRPHFCPRP | -0.0487
RRIRMRPPRLPRPRPRPHFVPRP | -0.025
RRIRMRPPRLPRPRPRPHGQPRP | 0.155
RRIRMRPPRLPRPRPRPHGYPRP | 0.185
RRIRMRPPRLPRPRPRPHIDPRP | 0.29
RRIRMRPPRLPRPRPRPHIIPRP | -0.991
RRIRMRPPRLPRPRPRPHKHPRP | -0.287
RRIRMRPPRLPRPRPRPHKMPRP | 0.193
RRIRMRPPRLPRPRPRPHMYPRP | -0.568
RRIRMRPPRLPRPRPRPHPCPRP | 0.046
RRIRMRPPRLPRPRPRPHPFPRP | 0.169
RRIRMRPPRLPRPRPRPHPMPRP | 2.74
RRIRMRPPRLPRPRPRPHRSPRP | -0.0246
RRIRMRPPRLPRPRPRPHSSPRP | 0.0203
RRIRMRPPRLPRPRPRPHTAPRP | -0.000764
RRIRMRPPRLPRPRPRPHTPPRP | 0.137
RRIRMRPPRLPRPRPRPHVDPRP | 0.51
RRIRMRPPRLPRPRPRPHVVPRP | -0.0448
RRIRMRPPRLPRPRPRPHVYPRP | -0.207

Sequence | shrunken log2 fold change
RRIRMRPPRLPRPRPRPICQPRP | 3.43
RRIRMRPPRLPRPRPRPIDIPRP | 0.476
RRIRMRPPRLPRPRPRPIDNPRP | 0.213
RRIRMRPPRLPRPRPRPIDTPRP | 0.0143
RRIRMRPPRLPRPRPRPIEVPRP | -0.00822
RRIRMRPPRLPRPRPRPIFFPRP | 0.276
RRIRMRPPRLPRPRPRPIFGPRP | 0.0873
RRIRMRPPRLPRPRPRPIFYPRP | -0.106
RRIRMRPPRLPRPRPRPIGDPRP | 0.0215
RRIRMRPPRLPRPRPRPIHEPRP | -0.301
RRIRMRPPRLPRPRPRPIHSPRP | -0.01
RRIRMRPPRLPRPRPRPIILPRP | -0.0572
RRIRMRPPRLPRPRPRPIITPRP | -0.512
RRIRMRPPRLPRPRPRPILSPRP | 0.00774
RRIRMRPPRLPRPRPRPIMLPRP | -0.351
RRIRMRPPRLPRPRPRPIMVPRP | -0.0355
RRIRMRPPRLPRPRPRPIMWPRP | -0.042
RRIRMRPPRLPRPRPRPINRPRP | -0.0561
RRIRMRPPRLPRPRPRPINYPRP | -0.22
RRIRMRPPRLPRPRPRPIQMPRP | -0.0558
RRIRMRPPRLPRPRPRPIVEPRP | 0.456
RRIRMRPPRLPRPRPRPIWCPRP | -0.234
RRIRMRPPRLPRPRPRPIWHPRP | -0.0798
RRIRMRPPRLPRPRPRPIWLPRP | 0.0637
RRIRMRPPRLPRPRPRPIWNPRP | -0.0214
